# Laboratory results: PMC9668737, “Herpes simplex virus 1 protein pUL21 alters ceramide metabolism by activating the interorganelle transport protein CERT” (The Journal of Biological Chemistry, 2022)
# Residue numbers refer to the chain shown, from its start. Numbers in names are those of the source. Where “and” joins values, the source holds several entries; their conditions need not be identical. Equal entries are not always repeated.
# T1: StrepII-CERT^P (UniProt Q9Y5P4-2 1-598, hyperphosphorylated (sites not given))
# T1 sequence (looked up): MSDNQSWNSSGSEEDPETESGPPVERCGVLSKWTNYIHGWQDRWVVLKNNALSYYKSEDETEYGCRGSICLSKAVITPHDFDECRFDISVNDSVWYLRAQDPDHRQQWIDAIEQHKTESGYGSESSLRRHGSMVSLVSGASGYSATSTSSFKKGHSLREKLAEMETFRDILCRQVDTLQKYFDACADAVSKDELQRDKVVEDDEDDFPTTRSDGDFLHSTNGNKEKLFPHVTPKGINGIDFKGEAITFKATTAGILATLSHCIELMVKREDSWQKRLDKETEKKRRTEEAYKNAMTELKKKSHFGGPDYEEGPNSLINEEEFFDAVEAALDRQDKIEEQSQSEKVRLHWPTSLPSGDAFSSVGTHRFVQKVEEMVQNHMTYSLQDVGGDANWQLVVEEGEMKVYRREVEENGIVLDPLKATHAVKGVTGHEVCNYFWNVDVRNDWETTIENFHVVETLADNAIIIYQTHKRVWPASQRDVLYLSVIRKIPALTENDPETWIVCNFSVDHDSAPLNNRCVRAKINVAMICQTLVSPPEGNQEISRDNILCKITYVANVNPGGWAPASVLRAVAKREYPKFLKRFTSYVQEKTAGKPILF
# T2: pUL21^V382E-H6 (HSV-1 pUL21 with V382E) (herpes simplex virus 1, UniProt F8RG07 1-535, V382E)
# T2 construct: tegument protein pUL21 of herpes simplex virus 1, UniProt F8RG07, with V382E; the text also writes H6-pUL21^V382E; also called H6-pUL21^V382E; source: E. coli T7 Express lysY/Iq, purified (Ni-NTA, SEC); not shown: His6, C-terminal, kept
# T2 sequence: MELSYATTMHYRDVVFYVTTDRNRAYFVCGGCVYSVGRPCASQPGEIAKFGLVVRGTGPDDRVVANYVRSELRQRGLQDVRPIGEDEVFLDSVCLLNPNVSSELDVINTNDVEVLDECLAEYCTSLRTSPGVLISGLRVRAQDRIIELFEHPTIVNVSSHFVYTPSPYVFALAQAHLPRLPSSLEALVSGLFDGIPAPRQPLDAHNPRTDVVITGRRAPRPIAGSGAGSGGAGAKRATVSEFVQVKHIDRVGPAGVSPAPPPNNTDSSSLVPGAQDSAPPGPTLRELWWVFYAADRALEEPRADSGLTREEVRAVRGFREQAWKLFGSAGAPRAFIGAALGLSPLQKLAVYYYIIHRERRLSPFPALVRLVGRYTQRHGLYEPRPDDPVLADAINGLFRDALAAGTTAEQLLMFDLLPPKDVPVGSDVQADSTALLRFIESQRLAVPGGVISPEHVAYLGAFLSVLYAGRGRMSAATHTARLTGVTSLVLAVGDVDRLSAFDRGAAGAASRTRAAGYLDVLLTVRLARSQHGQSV
# T3: H6-pUL21C (C-terminal domain of HSV-1 pUL21, amino acids 275 to 535) (herpes simplex virus 1, UniProt F8RG07 275-535)
# T3 construct: C-terminal domain of pUL21 of herpes simplex virus 1, residues 275-535 of UniProt F8RG07; source: E. coli T7 Express lysY/Iq, purified (Ni-NTA, SEC); not shown: MAH6, N-terminal, kept
# T3 sequence: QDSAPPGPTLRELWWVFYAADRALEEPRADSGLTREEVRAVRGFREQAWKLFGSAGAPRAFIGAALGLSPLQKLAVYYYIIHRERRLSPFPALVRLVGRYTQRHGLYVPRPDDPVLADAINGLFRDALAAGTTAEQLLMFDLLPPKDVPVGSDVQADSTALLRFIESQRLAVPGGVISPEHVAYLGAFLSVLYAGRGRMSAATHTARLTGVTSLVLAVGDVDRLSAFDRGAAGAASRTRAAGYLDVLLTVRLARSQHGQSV
# T4: pUL21-H6 (herpes simplex virus 1 (HSV-1), UniProt F8RG07 1-535)
# T4 construct: HSV-1 pUL21, UniProt F8RG07; some paragraphs print H6-pUL21; also called H6-pUL21; WT pUL21; source: E. coli T7 Express lysY/Iq, purified (Ni-NTA, SEC); not shown: His6, C-terminal, kept
# T4 sequence: T2 sequence with E382V
# T5: H6-pUL21C (herpes simplex virus 1 (HSV-1), UniProt F8RG07 275-535)
# T5 construct: HSV-1 pUL21 C-terminal domain, amino acids 275-535, UniProt F8RG07; Cloned in pOPTH; Monomer by SEC-MALS and SAXS; also called C-terminal domain of pUL21; source: E. coli T7 Express lysY/Iq, purified (Ni-NTA, SEC); not shown: MAH6, N-terminal, kept
# T5 sequence: T3 sequence
# T6: pUL21-H6 (HSV-1 pUL21) (herpes simplex virus 1, UniProt F8RG07 1-535)
# T6 construct: tegument protein pUL21 of herpes simplex virus 1, UniProt F8RG07; source: E. coli T7 Express lysY/Iq, purified (Ni-NTA, SEC); not shown: His6, C-terminal, kept
# T6 sequence: T2 sequence with E382V
# B1: pUL21^V382E-H6 (natural protein)
# chain: T2 sequence
# B2: H6-miniCERTL (CERTL residues 20-131 plus 351-624) (domain or fragment, human, UniProt Q9Y5P4-1 20-131, looked up)
# chain: SGPPVERCGVLSKWTNYIHGWQDRWVVLKNNALSYYKSEDETEYGCRGSICLSKAVITPHDFDECRFDISVNDSVWYLRAQDPDHRQQWIDAIEQHKTESGYGSESSLRRHGTSLPSGDAFSSVGTHRFVQKPYSRSSSMSSIDLVSASDDVHRFSSQVEEMVQNHMTYSLQDVGGDANWQLVVEEGEMKVYRREVEENGIVLDPLKATHAVKGVTGHEVCNYFWNVDVRNDWETTIENFHVVETLADNAIIIYQTHKRVWPASQRDVLYLSVIRKIPALTENDPETWIVCNFSVDHDSAPLNNRCVRAKINVAMICQTLVSPPEGNQEISRDNILCKITYVANVNPGGWAPASVLRAVAKREYPKFLKRFTSYVQEKTAGKPILF
# notes: human CERTL, PH domain and start of the middle region, residues 20-131 of Q9Y5P4-1; human CERTL, end of the middle region and STARTL domain, residues 351-624 of Q9Y5P4-1 (middle region residues 132-350 left out); source: E. coli T7 Express lysY/Iq, purified (Ni-NTA, SEC); not shown: MAH6, N-terminal, kept
# B3: H6-miniCERTL (domain or fragment, human, UniProt Q9Y5P4-1 20-624, looked up)
# chain: B2 chain
# notes: human CERTL, UniProt Q9Y5P4-1, residues 20-131 plus 351-624 (PH and STARTL domains joined by a retained 23 amino acid stretch of the middle region); Cloned into pOPTH; Monomer by SEC-MALS; source: E. coli T7 Express lysY/Iq, purified (Ni-NTA, SEC); not shown: MAH6, N-terminal, kept
# B4: StrepII-CERTL^P (hyperphosphorylated human CERTL) (natural protein, UniProt Q9Y5P4-1 1-624, looked up)
# chain: MSDNQSWNSSGSEEDPETESGPPVERCGVLSKWTNYIHGWQDRWVVLKNNALSYYKSEDETEYGCRGSICLSKAVITPHDFDECRFDISVNDSVWYLRAQDPDHRQQWIDAIEQHKTESGYGSESSLRRHGSMVSLVSGASGYSATSTSSFKKGHSLREKLAEMETFRDILCRQVDTLQKYFDACADAVSKDELQRDKVVEDDEDDFPTTRSDGDFLHSTNGNKEKLFPHVTPKGINGIDFKGEAITFKATTAGILATLSHCIELMVKREDSWQKRLDKETEKKRRTEEAYKNAMTELKKKSHFGGPDYEEGPNSLINEEEFFDAVEAALDRQDKIEEQSQSEKVRLHWPTSLPSGDAFSSVGTHRFVQKPYSRSSSMSSIDLVSASDDVHRFSSQVEEMVQNHMTYSLQDVGGDANWQLVVEEGEMKVYRREVEENGIVLDPLKATHAVKGVTGHEVCNYFWNVDVRNDWETTIENFHVVETLADNAIIIYQTHKRVWPASQRDVLYLSVIRKIPALTENDPETWIVCNFSVDHDSAPLNNRCVRAKINVAMICQTLVSPPEGNQEISRDNILCKITYVANVNPGGWAPASVLRAVAKREYPKFLKRFTSYVQEKTAGKPILF
# modifications: hyperphosphorylated (CERTL^P); sites not given
# notes: ceramide transport protein CERT, longer cytoplasmic isoform CERTL (with exon 11), human, UniProt Q9Y5P4-1; not shown: StrepII, N-terminal, kept
# B5: StrepII-CERTL^S132A (constitutively hypophosphorylated human CERTL) (natural protein, UniProt Q9Y5P4-1 1-624, looked up)
# chain: B4 chain with S132A
# notes: ceramide transport protein CERT, longer cytoplasmic isoform CERTL, human, UniProt Q9Y5P4-1, with S132A; source: Freestyle 293F cells, stably transfected, doxycycline-induced, purified (StrepTrap, SEC); not shown: StrepII, N-terminal, kept
# Experiments:
# [1] = target: T1, StrepII-CERT^P; assay: cell-based or functional assay
# [2] = target: T2, pUL21^V382E-H6 (HSV-1 pUL21 with V382E); assay: ITC; CERTL forms in the syringe titrated into pUL21 forms in the cell; 25 °C; 20 mM Tris pH 8.5, 500 mM NaCl, 0.5 mM TCEP; one-site binding model; single titrations; details: both partners purified
# [3] = target: T3, H6-pUL21C (C-terminal domain of HSV-1 …); assay: as above; details: both partners purified
# [4] = target: B1; assay: ITC; 25 °C; 20 mM Tris pH 8.5, 500 mM NaCl, 0.5 mM TCEP; CERTL forms in the syringe titrated into pUL21 forms in the cell; one-site binding model; details: both partners purified
# [5] = target: T4, pUL21-H6; assay: as above; details: both partners purified
# [6] = target: T5, H6-pUL21C; assay: as above; details: both partners purified
# [7] = target: T6, pUL21-H6 (HSV-1 pUL21); assay: ITC; CERTL forms in the syringe titrated into pUL21 forms in the cell; 25 °C; 20 mM Tris pH 8.5, 500 mM NaCl, 0.5 mM TCEP; one-site binding model; single titrations; details: both partners purified
binder,measurement,setting,value
B1,"EC50 of pUL21^V382E-H6 (62.5 nM to 4 μM) for accelerating GST-PP1-mediated dephosphorylation of 0.5 μM CERT^P in vitro, all proteins purified, 25 nM GST-PP1γ, 30 min at 30 °C",[1],3.33 μM
B2,Kd,[2],8.39 µM and 8.83 µM and 7.04 µM
same,stoichiometry N,[2],1.22 and 1.01 and 1.25
same,Kd,[3],5.5 µM and 3.15 µM
same,stoichiometry N,[3],0.95 and 1
B3,Kd,[4],8.09 µM
same,dH,[4],-7.2 kcal/mol
same,stoichiometry N,[4],1.16
same,Kd,[5],1.04 µM
same,dH,[5],-8.65 kcal/mol
same,stoichiometry N,[5],0.89
same,dH,[6],-3.84 kcal/mol
same,stoichiometry N,[6],0.97
B4,stoichiometry N,[7],0.76 and 0.72 and 0.74
B5,stoichiometry N,[7],0.93 and 1.01
